Reference: patent US20070254313A1, “Gnal Splice Variant and Uses Thereof” (AstraZeneca AB, priority 2003, published 2007)

How the values were obtained:
[1] = target: human dopamine D1A receptor (human) (UniProt P21728); test: cell-based or functional assay
[2] = target: human adenosine A2a receptor (ADORA2A) (human) (UniProt P29274); test: cell-based or functional assay
human adenosine A2a receptor (ADORA2A) (human), sequence (P29274 whole entry): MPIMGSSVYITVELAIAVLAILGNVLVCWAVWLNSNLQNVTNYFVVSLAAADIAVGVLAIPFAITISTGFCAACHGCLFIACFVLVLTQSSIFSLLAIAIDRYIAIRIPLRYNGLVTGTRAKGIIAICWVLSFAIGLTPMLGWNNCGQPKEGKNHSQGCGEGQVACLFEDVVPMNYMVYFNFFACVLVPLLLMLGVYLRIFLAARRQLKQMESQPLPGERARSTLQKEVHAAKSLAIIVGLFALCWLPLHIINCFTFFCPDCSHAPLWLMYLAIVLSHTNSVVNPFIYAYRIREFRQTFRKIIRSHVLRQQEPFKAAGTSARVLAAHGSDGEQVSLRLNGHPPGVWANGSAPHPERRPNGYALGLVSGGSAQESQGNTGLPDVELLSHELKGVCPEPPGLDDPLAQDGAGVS

human Golf protein, sequence (P38405 2-381 limits assumed): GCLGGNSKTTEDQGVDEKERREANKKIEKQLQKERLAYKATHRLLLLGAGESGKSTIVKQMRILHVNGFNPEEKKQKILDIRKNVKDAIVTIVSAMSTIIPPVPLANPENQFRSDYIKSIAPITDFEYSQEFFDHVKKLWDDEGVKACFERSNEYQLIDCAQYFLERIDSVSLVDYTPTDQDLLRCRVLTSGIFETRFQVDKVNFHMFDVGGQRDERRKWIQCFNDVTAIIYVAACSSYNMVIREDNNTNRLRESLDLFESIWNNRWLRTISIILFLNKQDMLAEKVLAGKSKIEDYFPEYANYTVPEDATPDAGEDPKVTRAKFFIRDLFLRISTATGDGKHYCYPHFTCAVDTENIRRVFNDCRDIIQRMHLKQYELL
human dopamine D1A receptor (human), sequence (P21728 whole entry): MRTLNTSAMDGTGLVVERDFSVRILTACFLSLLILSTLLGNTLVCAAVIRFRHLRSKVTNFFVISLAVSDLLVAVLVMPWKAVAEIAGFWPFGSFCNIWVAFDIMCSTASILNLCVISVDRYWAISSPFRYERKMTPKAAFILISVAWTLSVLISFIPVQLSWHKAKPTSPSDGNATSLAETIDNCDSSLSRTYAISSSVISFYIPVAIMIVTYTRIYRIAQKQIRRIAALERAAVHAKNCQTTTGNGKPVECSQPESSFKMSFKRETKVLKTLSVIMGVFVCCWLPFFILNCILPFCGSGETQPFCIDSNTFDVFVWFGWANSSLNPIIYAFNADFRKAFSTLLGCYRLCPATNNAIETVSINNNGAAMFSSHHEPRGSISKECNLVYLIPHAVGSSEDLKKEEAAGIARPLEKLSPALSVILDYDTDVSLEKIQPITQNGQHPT

efficacy (Emax) of dopamine-induced [35S]-GTPγS binding, membranes of Sf9 cells co-expressing DRD1 and Golf [1]: 231%
induction of GTPγS agonist signal, A2a receptor co-expressed with Golf in Sf9 cells [2]: 0.2
Substance: human Golf protein (from UniProt P38405 2-381)
